Article PMC2190570
Several values for one entry are separate records, joined by “and”; a condition that tells them apart may be missing. Equal entries are not always repeated.

Experiments:
[1] = molecular target: lamin B1Δrod mutant (human) (UniProt P20700); test: binding to an immobilised lamin matrix with urea step elution
[2] = molecular target: wild-type lamin B1 (human) (UniProt P20700); test: as above
[3] = molecular target: lamin B1Δrod mutant (human) (UniProt P20700); test: cross-linking
[4] = molecular target: T1, wild-type lamin B1 (human), P20700; test: cross-linking; details: remark: other sources report otherwise
T1 chain: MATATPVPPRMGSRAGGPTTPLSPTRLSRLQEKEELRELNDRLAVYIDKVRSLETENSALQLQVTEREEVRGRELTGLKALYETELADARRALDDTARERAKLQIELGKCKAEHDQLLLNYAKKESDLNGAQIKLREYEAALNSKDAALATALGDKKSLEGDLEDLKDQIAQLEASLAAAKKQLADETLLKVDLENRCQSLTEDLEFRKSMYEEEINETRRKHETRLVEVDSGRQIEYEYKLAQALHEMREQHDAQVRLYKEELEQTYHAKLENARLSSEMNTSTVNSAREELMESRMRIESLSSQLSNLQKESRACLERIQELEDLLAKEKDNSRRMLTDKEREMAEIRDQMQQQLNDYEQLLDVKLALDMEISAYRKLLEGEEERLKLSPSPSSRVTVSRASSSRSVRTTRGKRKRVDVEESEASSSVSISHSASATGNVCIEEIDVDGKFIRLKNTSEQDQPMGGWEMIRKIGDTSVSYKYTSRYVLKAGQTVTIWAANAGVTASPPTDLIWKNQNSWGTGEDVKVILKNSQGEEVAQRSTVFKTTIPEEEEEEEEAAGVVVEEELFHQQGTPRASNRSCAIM

[5] = molecular target: T1, wild-type lamin B1 (human), P20700; test: binding to an immobilised lamin matrix with urea step elution; details: remark: other sources report otherwise

Question: “lamin A (from UniProt P02545 1-646) (natural protein)” was tested. Which urea concentration at which the majority eluted [1] did it give?
Answer: The urea concentration at which the majority eluted was 2 M and 4 M.

Question: And the urea concentration at which the majority eluted [2]?
Answer: Its urea concentration at which the majority eluted is 7 M.

Question: How did the stoichiometry N [3] turn out when “lamin B1Δrod mutant (from UniProt P20700 1-69; P20700 340-586) (natural protein)” was run?
Answer: The stoichiometry N was 2.

Question: How did the urea concentration at which elution began [1] turn out when “lamin C (from UniProt P02545-2 1-572) (natural protein)” was run?
Answer: Its urea concentration at which elution began is 0.5 M.

Question: And the urea concentration at which the majority eluted [1]?
Answer: The urea concentration at which the majority eluted was 2 to 3 M.

Question: What about the urea concentration at which elution began [2] of the same molecule?
Answer: Its urea concentration at which elution began is 3 M.

Question: And the urea concentration at which the majority eluted [2]?
Answer: Its urea concentration at which the majority eluted is 5 to 7 M.

Question: With “wild-type lamin B1 (from UniProt P20700 1-586) (natural protein)” as the molecule, how does the urea concentration at which most protein eluted [1] read?
Answer: The urea concentration at which most protein eluted was 4 M and 7 M.

B1: wild-type lamin B1, P20700 1-586 (natural protein)
chain: MATATPVPPRMGSRAGGPTTPLSPTRLSRLQEKEELRELNDRLAVYIDKVRSLETENSALQLQVTEREEVRGRELTGLKALYETELADARRALDDTARERAKLQIELGKCKAEHDQLLLNYAKKESDLNGAQIKLREYEAALNSKDAALATALGDKKSLEGDLEDLKDQIAQLEASLAAAKKQLADETLLKVDLENRCQSLTEDLEFRKSMYEEEINETRRKHETRLVEVDSGRQIEYEYKLAQALHEMREQHDAQVRLYKEELEQTYHAKLENARLSSEMNTSTVNSAREELMESRMRIESLSSQLSNLQKESRACLERIQELEDLLAKEKDNSRRMLTDKEREMAEIRDQMQQQLNDYEQLLDVKLALDMEISAYRKLLEGEEERLKLSPSPSSRVTVSRASSSRSVRTTRGKRKRVDVEESEASSSVSISHSASATGNVCIEEIDVDGKFIRLKNTSEQDQPMGGWEMIRKIGDTSVSYKYTSRYVLKAGQTVTIWAANAGVTASPPTDLIWKNQNSWGTGEDVKVILKNSQGEEVAQRSTVFKTTIPEEEEEEEEAAGVVVEEELFHQQGTPRASNRSCAIM
Question: What does the source list for B1?
Answer: stoichiometry N [4]: 2; urea concentration at which most protein eluted [5]: 7 M and 4 M
